Assay results taken from patent US20230002478A1 (published 2023).
Several values for one entry are separate records, joined by “and”; a condition that tells them apart may be missing. Equal entries are not always repeated. Where two headings read alike, the source gives them in different places.

Legend:
Assay in all cases: SPR
[1] = biological target: T1, SARS-CoV-2 spike protein, kappa variant (SPR, FIG. 28 Panel D) (SARS-CoV-2, UniProt P0DTC2 16-1213)
[2] = biological target: T2, SARS-CoV-2 spike protein, gamma variant (SPR, FIG. 28 Panel C) (SARS-CoV-2, UniProt P0DTC2 16-1213)
[3] = biological target: T3, SARS-CoV-2 spike protein, beta variant (SPR, FIG. 28 Panel B) (SARS-CoV-2, UniProt P0DTC2 16-1213)
[4] = biological target: SARS-CoV-2 spike protein, wildtype variant (SPR, FIG. 28 Panel A) (SARS-CoV-2, UniProt P0DTC2 16-1213)
[5] = biological target: T1, SARS-CoV-2 spike protein, kappa variant …; remark: listed apart in the source
[6] = biological target: T2, SARS-CoV-2 spike protein, gamma variant …; remark: listed apart in the source
[7] = biological target: SARS-CoV-2 spike protein, Delta variant (SPR) (SARS-CoV-2, UniProt P0DTC2 16-1213)
[8] = biological target: T3, SARS-CoV-2 spike protein, beta variant …; remark: listed apart in the source
[9] = biological target: SARS-CoV-2 S Trimer Alpha B.1.1.7 UK variant
[10] = biological target: SARS-CoV-2 mutant trimer UK TB918-09

B1: antibody 202-03 (Fc fusion)
chain: EVQLVESGGGLVQPGGSLRLSCAASGFTFSPSWMGWFRQAPGKEREFVATINEYGGRNYADSVKGRFTISADNSKNTAYLQMNSLKPEDTAVYYCARVDRDFDYWGQGTLVTVSS
[1]
  Kd: 0.272 nM
[2]
  Kd: < 0.073 nM
[3]
  Kd: < 0.05 nM
[4]
  Kd: < 0.064 nM
[5]
  Kd: 0.105 nM
[6]
  Kd: < 0.041 nM
[7]
  Kd: 0.312 nM
[8]
  Kd: < 0.095 nM

B2: antibody 339-031 (Fc fusion)
chain: EVQLVESGGGLVQPGGSLRLSCAASGSTFSINAMGWFRQAPGKEREFVAGITSSGGYTNYADSVKGRFTISADNSKNTAYLQMNSLKPEDTAVYYCAADGVPEYSDYASGPVWGQGTLVTVSS
[1]
  Kd: < 0.01 nM
[2]
  Kd: < 0.0094 nM
[7]
  Kd: < 0.011 nM
[8]
  Kd: < 0.0096 nM

B3: T8339-031 (Fc fusion)
chain: EVQLVESGGGLVQPGGSLRLSCAASGSTFSINAMGWFRQAPGKEREFVAGITSSGGYTNYADSVKGRFTISADNSKNTAYLQMNSLKPEDTAVYYCAADGVPEYSDYASGPVWGQGTLVTVSS
[9]
  Kd: < 0.011 nM

B4: T8202-3 (TP37196F) (Fc fusion)
chain: EVQLVESGGGLVQPGGSLRLSCAASGFTFSPSWMGWFRQAPGKEREFVATINEYGGRNYADSVKGRFTISADNSKNTAYLQMNSLKPEDTAVYYCARVDRDFDYWGQGTLVTVSS
[9]
  Kd: < 0.075 nM

B5: 6-3 (Fc fusion)
chain: EVQLVESGGGLVQPGGSLRLSCAASGFTFSPSWMGWFRQAPGKEREFVATINEYGGRNYADSVKGRFTISADNSKNTAYLQMNSLKPEDTAVYYCARVDRDFDYWGQGTLVTVSS
[10]
  Kd: 0.857 nM and 1.3 nM
